Data reported in publication PMC3440409.

What was measured:
Details in all cases: 1 mM MgCl2, 0.5 mM EDTA, 0.5 mM DTT, 50 mM NaCl, 10 mM Tris-HCl pH 7.5, 0.05 mg/ml poly(dI-dC), 10 ul, room temperature 30 min; footprinting in same buffer …
[1] = target: T1, His-AphA (Vibrio parahaemolyticus RIMD 2210633) (UniProt Q87L53); experiment: competition
T1 sequence: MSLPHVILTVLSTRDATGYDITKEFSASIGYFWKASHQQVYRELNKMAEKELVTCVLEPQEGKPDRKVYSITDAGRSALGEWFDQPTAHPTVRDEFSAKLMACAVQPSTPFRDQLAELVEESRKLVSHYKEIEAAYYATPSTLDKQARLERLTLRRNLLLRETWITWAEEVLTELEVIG

[2] = target: T1, His-AphA (Vibrio parahaemolyticus RIMD 2210633); experiment: EMSA
[3] = target: T1, His-AphA (Vibrio parahaemolyticus RIMD 2210633); experiment: DNase I footprinting

Sequence	binding [1]	binding [2]	binding [3]
AACTTCCAACCACATAATTGCGCAGCAAATAACCAGACATTTACACTACAAAAAACCCATAAAATACCAACAAATTAGAATTATTAACTACAAAATAACTCTATTGAGTATTATGTTAGTTTTTCAGGGTAATTTTGTCCTAGTATTCCACTTCATGCTTATTATTTATATACTACTTGCCTGCTGAGAGCTCATAAATCCAATCATACCTGCTCCAGCC (double strand) [aphA promoter fragment]	binds	binds	binds
AGTGGGTTGAAAGTCACATCCTTTTGCGGAAAATTCTTGGGAGCGCTGCCAAATTTTCGAAAGTTTACAGCAAAACTTATCAATAATAATGACATTACTGTCTATAAATTATCCATCAGATGTTGACCTTGTGCATATGCACCATTACACTCATCACTGCTTAAAGCAATTATTAAAATAATCAATTAGGGGGTTACCCCCAACAACAACTCAAATGGCAAGGAAAATGGATATGGACTCAATTGCAAAGAGACCTAGAACTAGGC (double strand) [opaR promoter fragment (footprinting)]	–	–	binds
AGTGGTTGCTTATGAATCAATCCCAGGAAAAGGCGAGAACAGCGAACCTTCAACTCGTTAACATTTTATTTTCATTTACATTTTGACTAACTCAATTGTTAATAAATTACCTAAATTGCATTTTGAAATTGCAGAATGCAATTAAGTTTTGTTTTTTGCAAAAATTTATATAGGCAATATCAGTTTATATGAGATCTTGTGCCCAAAAATAAAGCTTTGAAAATTGGCATGATTAATGCATAATACTTCTCGACC (double strand) [qrr2 promoter fragment]	–	no binding	–
CGACGCATTATTAACCAGCACTTTCGCAAATTGCATTTGCAAAATGCAATAGCATGCAAATATGCCACTTGTTACATTGCTACTAATCACTTTCTCAGCAAAAAACCAACTACTACTTTATGATTATCCATTAGCTTTCATATTTTTACCCTATACTGCTAATTAATGAGGAAAAATACCTCAGTAAATGGATTTCACGGTT (double strand) [qrr4 promoter fragment]	–	binds	binds
GGATAAGTTCAAATTGGATCCAGCCTTAGCAGGCTCGGTTATTCTAACGACAGTGACAGATGTGGTTGGTTTTTTCGCCTTTTTGGGAACGGCGAGTTTAGTCATGCTCTAAAAAGTCCACTGTTTATTAATCAATCATTAGCATAATAGAGACAAATTGCATAACGCACTTGCAAATTGCAAAAACATTCAAAGTTTAAGCAACGTATGTCACAGAAACCAC (double strand) [qrr3 promoter fragment]	–	no binding	–
